How the values were obtained:
[1] = target: HXBc2 mature gp120 expressed by COS-1 cells (HIV-1 (HXBc2 clone)) (UniProt P04578)
[2] = target: HXBc2 gp120 mutant NO V1/V2 (HIV-1 (HXBc2 clone of strain LAI)) (UniProt P04578); assay: capture ELISA (D7324)
[3] = target: gp120 derived from the HIV-1 strain LAI (Repligen) (HIV-1 strain LAI) (UniProt P03377); assay: SPR (BIAcore), kon/koff
[4] = target: gp120 derived from the HIV-1 strain LAI (Repligen) (HIV-1 strain LAI) (UniProt P03377); assay: SPR (BIAcore), gp120 immobilized
[5] = target: multimeric HXBc2 envelope glycoprotein complex on the transfected COS-1 cell surface (HIV-1 (HXBc2 clone)) (UniProt P04578); assay: Fab on transfected COS-1 cells, immunoprecipitation
[6] = target: recombinant gp120 of HIV-1 strain IIIB (HIV-1 strain IIIB) (UniProt P04578); assay: inhibition ELISA, free gp120 titrated against plate-bound gp120
[7] = target: gp120 derived from the HIV-1 strain LAI (Repligen) (HIV-1 strain LAI) (UniProt P03377); assay: BIAcore sandwich, Fab 2 on gp120 held by Fab 1; competitor (Fab 1): b6
[8] = target: gp120 derived from the HIV-1 strain LAI (Repligen) (HIV-1 strain LAI) (UniProt P03377); assay: BIAcore sandwich, Fab 2 on gp120 held by Fab 1; competitor (Fab 1): b12
[9] = target: gp120 derived from the HIV-1 strain LAI (Repligen) (HIV-1 strain LAI) (UniProt P03377); assay: BIAcore sandwich, Fab 2 on gp120 held by Fab 1; competitor (Fab 1): b13
[10] = target: gp120 derived from the HIV-1 strain LAI (Repligen) (HIV-1 strain LAI) (UniProt P03377); assay: BIAcore sandwich, same Fab injected twice (negative control); competitor: b6
[11] = target: HXBc2 mature gp120 expressed by COS-1 cells (HIV-1 (HXBc2 clone)) (UniProt P04578); assay: Fab on radiolabeled COS-1 cells, lysis, precipitation, gel densitometry
[12] = target: gp120 derived from the HIV-1 strain LAI (Repligen) (HIV-1 strain LAI) (UniProt P03377); assay: BIAcore sandwich, same Fab injected twice (negative control); competitor: b12
[13] = target: recombinant gp120 of HIV-1 strain IIIB (HIV-1 strain IIIB) (UniProt P04578); assay: SPR (BIAcore)

Substance | Ka [1] | Fab/reference serum binding ratio [2] | Ka [3] | koff [4] | kon [4] | Fab concentration at saturation [5] | IC50 [6] | response (RU), background subtracted [7] | response (RU), background subtracted [8] | response (RU), background subtracted [9] | response (RU), background [10] | excess of gp120 over gp160 immunoreacted [11] | response (RU), background [12] | Ka [13]
Fab b6 | < 6e+06 M⁻¹ | 1.48 | 9.7e+07 M⁻¹ | 0.00016 s⁻¹ | 16000 M⁻¹ s⁻¹ | > 150 µg/mL | 1 nM | 0 RU | 17 RU | 21 RU | 38 RU | – | – | –
Fab b12 | 3e+07 M⁻¹ | 0.23 | 1.1e+08 M⁻¹ | 0.00043 s⁻¹ | 45000 M⁻¹ s⁻¹ | 100 µg/mL | 1 nM | – | 0 RU | 22 RU | – | > 50% | 17 RU | –
b12 IgG1 (antibody) | – | – | – | – | – | – | – | – | – | – | – | – | – | 1.3e+09 M⁻¹
